# Data as given in US20250250357A1 (NANJING ZAIMING PHARMACEUTICAL, published 2025).
# Positions count from the first letter of the chain named.
# B1: F7.33.24-H3 (scFv, not shown: small tags and cut ends)
# scFv: EVQLVQSGAEVKKPGASVKVSCKASGYTFTSYWMHWVRQAPGQRLEWMGNVNPSNGGSNYNEKFKNRVTITVDKSASTAYMELSSLRSEDTAVYYCAPHYIGSRPGFAYWGQGTLVTVSSGGGGSGGGGSGGGGSDIVMTQTPLSLSVTPGQPASISCKASQNVGTNIAWYQQKPGQSPQALIYSASYRYSGVPDRFSGSGSGTDFTLKISRVEAEDVGVYYCQQYNSYPLTFGGGTKVEIK
# notes: also called S009-F7.33.24 humanized antibody VH1 + VL3
# B2: F7.33.24-H12 (scFv, not shown: small tags and cut ends)
# scFv: B1 scFv with R44G, G56A
# notes: also called S009-F7.33.24 humanized antibody VH2a + VL3
# B3: F7.33.24-H5 (scFv, not shown: small tags and cut ends)
# scFv: B1 scFv with N55S, Q172L
# notes: also called S009-F7.33.24 humanized antibody VH1a + VL2
# B4: F7.33.24-H8 (scFv, not shown: small tags and cut ends)
# scFv: B1 scFv with R44G, Q172L
# notes: also called S009-F7.33.24 humanized antibody VH2 + VL2
# B5: F7.33.24-H11 (scFv, not shown: small tags and cut ends)
# scFv: B1 scFv with R44G, G56A, Q172L
# notes: also called S009-F7.33.24 humanized antibody VH2a + VL2
# B6: F7.33.24-H6 (scFv, not shown: small tags and cut ends)
# scFv: B1 scFv with N55S
# notes: also called S009-F7.33.24 humanized antibody VH1a + VL3
# B7: F7.33.24-H9 (scFv, not shown: small tags and cut ends)
# scFv: B1 scFv with R44G
# notes: also called S009-F7.33.24 humanized antibody VH2 + VL3
# B8: F7.33.24 (scFv, not shown: small tags and cut ends)
# scFv: QVQLQQPGTELVKPGASVKLSCKASGYTFTSYWMHWVKQRPGQGLEWIGNVNPSNGGSNYNEKFKNKATLTVDKSSSTADMQLNSLTSEDSAVYYCAPHYIGSRPGFAYWGQGTLVTVSGGGGGSGGGGSGGGGSDIVMTQSQKFMSTSVGDRVSVTCKASQNVGTNIAWYQQKPGQSPKALIYSASYRYSGVPDRFTGSGSGTDFTLTITNVQSEDLAEYFCQQYNSYPLTFGGGTKVEIK
# notes: also called S009-F7.33.24 (parental variable regions, in the humanized-antibody ELISA)
# B9: S009-F3.7.3 (antibody, human IgG1, kappa, V domains shown)
# VH: EVNFEESGGGLVQPGGSMKLSCVASGFTFSNYWMNWVRQSPEKGLEWVAQIRLKSDNYATHYAESVKGRFTISRDDFKSSVYLQMNNLRAEDTGIYYCTVGTGGYWGQGTTLTVSS
# VL: DIVLTQSPASLAMSLGKRATISCRASESVSIVGTNVIHWFQQKPGQPPKLLIYHASNLETGVPARFSGSGSGTDFTLTIDPVEEDDVAIYHCLQSRKIPWTFGGGTKLEIKR
# notes: human-murine chimeric antibody, human IgG1/kappa constant regions
# Biological target: T1, human MSLN-R3 protein (human, UniProt Q13421 487-598)
# T1 construct: also called hMSLN-R3
# Assay: ELISA on coated antigen, antibody 1 nM
# T1 sequence (Q13421 495-606, form in doubt): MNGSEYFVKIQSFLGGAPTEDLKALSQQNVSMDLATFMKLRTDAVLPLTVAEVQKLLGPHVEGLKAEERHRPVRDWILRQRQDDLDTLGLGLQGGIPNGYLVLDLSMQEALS
row,Binder,OD450 [OD450]
1,B1,0.89
2,B2,0.65
3,B3,0.39
4,B4,0.63
5,B5,0.68
6,B6,0.53
7,B7,0.82
8,B8,0.71

# Biological target: T2, monkey MSLN full-length protein (NCBI: XP_028696439.1) expressed on HEK293T-monkey MSLN cells (monkey)
# T2 construct: Whole encoded precursor
# T2 chain: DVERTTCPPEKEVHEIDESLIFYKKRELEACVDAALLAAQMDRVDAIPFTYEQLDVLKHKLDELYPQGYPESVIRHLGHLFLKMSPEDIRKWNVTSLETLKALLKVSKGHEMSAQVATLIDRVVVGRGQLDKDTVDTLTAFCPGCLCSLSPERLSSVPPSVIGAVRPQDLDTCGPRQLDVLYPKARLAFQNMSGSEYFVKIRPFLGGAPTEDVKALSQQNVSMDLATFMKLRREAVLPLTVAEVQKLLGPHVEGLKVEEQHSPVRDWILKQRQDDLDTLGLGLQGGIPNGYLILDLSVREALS
# Assay: FACS on HEK293T-monkey MSLN cells
row,Binder,Maximum mean fluorescence intensity
1,B9,7100

# Biological target: T3, human MSLN protein endogenously expressed on OVCAR3 tumor cells (human, UniProt Q13421 296-598)
# T3 construct: whole, on cells; Endogenous target on OVCAR3 cells; kept apart from the recombinant full-length construct; also called mesothelin
# Assay: FACS on OVCAR3 cells
# T3 sequence (Q13421 other isoform, or with tags, fused parts or gaps): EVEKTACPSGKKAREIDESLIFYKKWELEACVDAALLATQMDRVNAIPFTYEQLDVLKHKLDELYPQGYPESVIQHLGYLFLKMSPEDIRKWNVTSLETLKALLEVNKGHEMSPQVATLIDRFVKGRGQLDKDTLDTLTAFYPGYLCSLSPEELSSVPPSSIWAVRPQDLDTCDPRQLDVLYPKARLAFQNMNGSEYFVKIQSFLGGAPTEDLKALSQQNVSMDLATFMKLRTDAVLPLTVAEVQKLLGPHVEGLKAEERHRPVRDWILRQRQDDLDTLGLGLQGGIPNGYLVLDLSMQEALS
Binder,EC50 [nM],Maximum mean fluorescence intensity
B9,1.94,3700

# Biological target: T4, human MSLN-hFc protein (Acro, Cat. No. MSN-H5253) (human, UniProt Q13421 296-580)
# T4 construct: the method names the coated protein as human MSLN-hFc (Acro); also called human MSLN full-length protein
# Assay: ELISA on coated antigen, antibody 0.0001 nM
# T4 sequence (Q13421 other isoform, or with tags, fused parts or gaps limits assumed): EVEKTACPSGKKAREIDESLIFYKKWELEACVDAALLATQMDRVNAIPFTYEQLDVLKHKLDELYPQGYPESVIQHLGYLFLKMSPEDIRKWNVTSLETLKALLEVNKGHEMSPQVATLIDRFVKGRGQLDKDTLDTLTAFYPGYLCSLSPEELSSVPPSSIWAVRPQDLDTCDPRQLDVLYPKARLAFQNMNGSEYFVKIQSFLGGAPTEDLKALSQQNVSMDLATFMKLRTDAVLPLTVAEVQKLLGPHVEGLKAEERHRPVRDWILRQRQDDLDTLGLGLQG
row,Binder,OD450 [OD450]
1,B1,0.05
2,B2,0.05
3,B3,0.05
4,B4,0.05
5,B5,0.04
6,B6,0.05
7,B7,0.05
8,B8,0.04

# Biological target: T4, human MSLN-hFc protein (Acro, Cat. No. …)
# Assay: ELISA on coated antigen, antibody 0.01 nM
row,Binder,OD450 [OD450]
1,B1,0.06
2,B2,0.04
3,B3,0.04
4,B4,0.05
5,B5,0.04
6,B6,0.05
7,B7,0.05
8,B8,0.21

# Biological target: T5, human MSLN-R3 protein (Met487-Ser606 of NCBI AAH09272.1) expressed on HEK293T-hMSLN-R3 cells (human, UniProt Q13421 487-606)
# T5 construct: also called Region3
# Assay: FACS on HEK293T-hMSLN-R3 cells
# T5 sequence (Q13421 495-614): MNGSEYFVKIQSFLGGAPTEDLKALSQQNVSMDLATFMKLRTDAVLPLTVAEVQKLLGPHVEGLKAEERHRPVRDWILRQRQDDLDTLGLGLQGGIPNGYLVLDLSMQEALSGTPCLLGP
Binder,EC50 [nM],Maximum mean fluorescence intensity
B9,0.72,7920

# Biological target: T1, human MSLN-R3 protein
# Assay: ELISA on coated antigen, antibody 0.001 nM
row,Binder,OD450 [OD450]
1,B1,0.04
2,B2,0.04
3,B3,0.04
4,B4,0.04
5,B5,0.04
6,B6,0.04
7,B7,0.04
8,B8,0.04

# Biological target: T4, human MSLN-hFc protein (Acro, Cat. No. …)
# Assay: ELISA on coated antigen, antibody 10 nM
row,Binder,OD450 [OD450]
1,B1,2.58
2,B2,2.28
3,B3,1.91
4,B4,2.04
5,B5,2.18
6,B6,2.36
7,B7,2.49
8,B8,1.63

# Biological target: T1, human MSLN-R3 protein
# Assay: ELISA on coated antigen, antibody 100 nM
row,Binder,OD450 [OD450]
1,B1,1.91
2,B2,2.04
3,B3,1.92
4,B4,2.16
5,B5,2.1
6,B6,1.98
7,B7,2.25
8,B8,1.92

# Biological target: T1, human MSLN-R3 protein
# Assay: ELISA on coated antigen, antibody 10 nM
row,Binder,OD450 [OD450]
1,B1,1.86
2,B2,1.95
3,B3,1.53
4,B4,1.92
5,B5,1.94
6,B6,1.74
7,B7,2.08
8,B8,1.78

# Biological target: T4, human MSLN-hFc protein (Acro, Cat. No. …)
# Assay: ELISA on coated antigen, antibody 1 nM
row,Binder,OD450 [OD450]
1,B1,0.91
2,B2,0.58
3,B3,0.33
4,B4,0.48
5,B5,0.57
6,B6,0.45
7,B7,0.66
8,B8,0.27

# Biological target: T1, human MSLN-R3 protein
# Assay: ELISA on coated antigen, antibody 0.01 nM
row,Binder,OD450 [OD450]
1,B1,0.04
2,B2,0.04
3,B3,0.04
4,B4,0.05
5,B5,0.05
6,B6,0.04
7,B7,0.05
8,B8,0.04

# Biological target: T1, human MSLN-R3 protein
# Assay: ELISA on coated antigen, antibody 0.1 nM
row,Binder,OD450 [OD450]
1,B1,0.13
2,B2,0.09
3,B3,0.06
4,B4,0.09
5,B5,0.09
6,B6,0.07
7,B7,0.11
8,B8,0.09

# Biological target: T4, human MSLN-hFc protein (Acro, Cat. No. …)
# Assay: ELISA on coated antigen, antibody 100 nM
row,Binder,OD450 [OD450]
1,B1,2.93
2,B2,2.65
3,B3,2.85
4,B4,2.7
5,B5,2.65
6,B6,2.96
7,B7,2.78
8,B8,2.58

# Biological target: T4, human MSLN-hFc protein (Acro, Cat. No. …)
# Assay: ELISA on coated antigen, antibody 0.1 nM
row,Binder,OD450 [OD450]
1,B1,0.13
2,B2,0.1
3,B3,0.07
4,B4,0.09
5,B5,0.09
6,B6,0.08
7,B7,0.1
8,B8,0.06

# Biological target: T4, human MSLN-hFc protein (Acro, Cat. No. …)
# Assay: ELISA on coated antigen, antibody 0.001 nM
row,Binder,OD450 [OD450]
1,B1,0.05
2,B2,0.04
3,B3,0.05
4,B4,0.05
5,B5,0.04
6,B6,0.05
7,B7,0.04
8,B8,0.26

# Biological target: T1, human MSLN-R3 protein
# Assay: ELISA on coated antigen, antibody 0.0001 nM
row,Binder,OD450 [OD450]
1,B1,0.04
2,B2,0.04
3,B3,0.04
4,B4,0.05
5,B5,0.05
6,B6,0.04
7,B7,0.04
8,B8,0.04

# Biological target: T6, human MSLN full-length protein (NCBI: AAH09272.1) expressed on HEK293T-hMSLN-B8 cells (human, UniProt Q13421 296-598)
# T6 construct: Whole encoded precursor
# Assay: FACS on HEK293T-hMSLN-B8 cells
# T6 sequence (Q13421 other isoform, or with tags, fused parts or gaps limits assumed): as the sequence (Q13421 other isoform, or with tags, fused parts or gaps) above, with R14P counted along it
Binder,EC50 [nM],Maximum mean fluorescence intensity
B9,2.25,88800
